The subject of assay [1] is TGFB1 reporter cell line (Mink Lung Epithelium Cells, PAI-1 promoter luciferase). The assay can be described thus: Luciferase assay in TGFB1 reporter cell line. The arrangement: dose or concentration left out as unconfirmed. The conditions noted are these: cells on films with immobilized hTGFB1. The assay is classed as cell-based. Here is the method: MLECs were seeded at 64000 cells/cm^2 and allowed to attach overnight at 37° C. in a 5% CO2 incubator. The medium was then replaced by DMEM without FBS and cells incubated for an additional period of 24 hours. Cells were lysed and the luciferase quantified according to the manufacturer's protocol (Promega, E4530). Luciferase values were normalized for DNA content quantified by CyQuant Cell proliferation assay (Invitrogen).

Assay [2] deals with HUVECs. Briefly: Cell survival of HUVECs after starvation. Particulars: 20 ng/mL hVEGF in medium during 24 hours starvation; versus native films without hVEGF. The assay is classed as cell-based, human. Here is the method:
Samples were incubated with 1 μg/mL of VEGF (PeproTech) in 0.5% (v/v) PBS TWEEN®20 (PBST) for one hour with gentle agitation. The films were then washed three times for 10 minutes with 0.5% (v/v) PBST and then with PBS for a further 10 minutes. Next, the films were blocked for one hour with PBS containing 1% (w/v) bovine serum albumin (BSA) and subsequently washed as described above. Afterwards, the films were incubated with a primary antibody (2 μg/mL; rabbit polyclonal anti-human VEGF, PeproTech) in the blocking solution during one hour with agitation. The films were washed as mentioned above and then incubated with a secondary antibody (8 μg/mL; goat anti-rabbit ALEXA FLUOR® 594, Invitrogen) in PBS containing 1% w/v BSA for one hour with gentle agitation. Before image acquisition, the films were washed three times for 10 minutes with […], rinsed three times with PBS and dried under a N2 stream. Fluorescence intensity was quantified using ImageJ. […]
HUVECs at passage 4 were used for experiments. […] Once detached, fresh medium was added to neutralize the trypsin and the cells were counted. […] After 24 hours, the cells were lysed and the DNA content was quantified by CyQUANT cell proliferation assay (Invitrogen), following the manufacturer's instructions.

The subject of assay [3] is BMP-2 reporter cell line (C2C12 Luc, ID1 promoter luciferase). Briefly: Luciferase assay in BMP-2 reporter cell line. The assay is classed as cell-based. Particulars: 2 ng/mL inhibitor; response to immobilized hBMP-2. How it is done:
For cell experiments, the sterile films were washed three times with PBS and incubated with concentrated hBMP-2 in PBS for one hour with gentle agitation. Subsequently, the films were extensively washed with TBST (0.5%) and PBS to remove any traces of the washing buffer prior to cell seeding.
C2C12 Luc express luciferase under the control of a ID1 promoter—a BMP-2 target gene (Zilberberg et al., 2007, BMC Cell Biol. 8(41). DOI: 10.1186/1471-2121-8-41).
C2C12 Luc were seeded on films at 16,000 cells/cm2 in DMEM medium supplemented with 10% FBS and allowed to attach overnight at 37° C. in a 5% CO2 incubator. The cells were lysed the following day and the luciferase quantified according to the manufacturer's protocol (Promega, E4530). Luciferase values were normalized for DNA content quantified by CyQUANT cell proliferation assay (Invitrogen).

In the case of `Cc1cccc(-c2[nH]c(C(C)(C)C)nc2-c2ccc3c(c2)OCO3)n1.Cl` [SB-431452, 2-(5-benzo[1,3]dioxol-5-yl-2-tert-butyl-3H-imidazol-4-yl)-6-methylpyridine hydrochloride], the “luciferase activity in presence of TGF-β1 inhibitor” value in assay [1] is reported as “completely suppressed”.

B1: soluble VEGF: soluble hVEGF added to the medium during starvation (protein)
chain: APMAEGGGQNHHEVVKFMDVYQRSYCHPIETLVDIFQEYPDEIEYIFKPSCVPLMRCGGCCNDEGLECVPTEESNITMQIMRIKPHQGQHIGEMSFLQHNKCECRPKKDRARQENPCGPCSERRKHLFVQDPQTCKCSCKNTDSRCKARQLELNERTCRCDKPRR
For the molecule B1, the “survival of HUVECs (total amount of DNA) with soluble VEGF” value in assay [2] was “significant increase in the amount of DNA”.

B2: Noggin: specific BMP-2 inhibitor (protein, UniProt Q13253 28-232, looked up)
Noggin: QHYLHIRPAPSDNLPLVDLIEHPDPIFDPKEKDLNETLLRSLLGGHYDPGFMATSPPEDRPGGGGGAAGGAEDLAELDQLLRQRPSGAMPSEIKGLEFSEGLAQGKKQRLSKKLRRKLQMWLWSQTFCPVLYAWNDLGSRFWPRYVKVGSCFSKRSCSVPEGMVCKPSKSVHLTVLRWRCQRRGGQRCGWIPIQYPIISECKCSC
For B2, in assay [3], the “luciferase activity in presence of BMP-2 inhibitor” value is “completely suppressed”.

Values taken from patent US12275803B2, “Functionalization of biopolymers with growth factor-binding peptides” (Universiteit Twente, priority 2016, dated 2025).
